Results: PMC3079584, “A Cytoplasmic Complex Mediates Specific mRNA Recognition and Localization in Yeast”

Tests used:
Puf6p = Puf6p (Saccharomyces cerevisiae, UniProt Q04373 2-656); assay: EMSA; EMSA: 20 mM HEPES pH 7.8, 200 mM NaCl, 2 mM MgCl2, 2 mM DTT, 4% glycerol, 30 or 100 ug/ml yeast tRNA, 5 nM RNA, 20 C; filter binding: 20 mM HEPES pH 7.4-7.5 (7.9 with She3p), 150 mM NaCl, 2 mM MgCl2, 2 mM DTT, 30 ug/ml yeast tRNA, 0.5 nM RNA; pull-down: HNMD buffer, 4 C; conditions: protein: recombinant; tags: GST tag (cleaved for EMSA; retained in GST pull-downs); label: 32P; stem-loop
Sequence of Puf6p (Q04373 2-656): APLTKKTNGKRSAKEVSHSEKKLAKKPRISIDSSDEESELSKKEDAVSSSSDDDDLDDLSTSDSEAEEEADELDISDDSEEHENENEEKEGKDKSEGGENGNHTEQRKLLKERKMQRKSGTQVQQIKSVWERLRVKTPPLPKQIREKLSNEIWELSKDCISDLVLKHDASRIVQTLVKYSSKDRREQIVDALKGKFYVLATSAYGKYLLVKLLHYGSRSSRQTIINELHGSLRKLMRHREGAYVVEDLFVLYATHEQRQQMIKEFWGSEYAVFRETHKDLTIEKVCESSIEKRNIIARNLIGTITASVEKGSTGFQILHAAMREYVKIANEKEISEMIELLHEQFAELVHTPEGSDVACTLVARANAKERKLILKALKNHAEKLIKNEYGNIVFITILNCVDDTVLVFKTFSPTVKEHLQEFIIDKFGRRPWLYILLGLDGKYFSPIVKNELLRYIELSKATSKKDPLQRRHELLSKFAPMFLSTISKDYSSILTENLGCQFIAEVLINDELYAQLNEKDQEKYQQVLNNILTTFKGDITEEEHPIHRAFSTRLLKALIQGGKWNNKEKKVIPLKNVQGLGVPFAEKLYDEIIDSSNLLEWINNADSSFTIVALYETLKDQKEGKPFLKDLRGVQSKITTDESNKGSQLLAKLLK

[1] = target: She2p;She3p (S343E S361E) (Saccharomyces cerevisiae;Saccharomyces …, UniProt P36068;P38272 1-246;1-425, |S343E;S361E); assay: EMSA; synergism +++; EMSA: 20 mM HEPES pH 7.8, 200 mM NaCl, 2 mM MgCl2, 2 mM DTT, 4% glycerol, 30 or 100 ug/ml yeast tRNA, 5 nM RNA, 20 C; filter binding: 20 mM HEPES pH 7.4-7.5 (7.9 with She3p), 150 mM NaCl, 2 mM MgCl2, 2 mM DTT, 30 ug/ml yeast tRNA, 0.5 nM RNA; pull-down: HNMD buffer, 4 C; conditions: protein: recombinant;recombinant; tags: GST tag (PreScission-cleaved);C-terminal His6; chain copies: 4;2; label: 32P; stem-loop
Sequence of She2p;She3p (S343E S361E) (P36068 whole entry, stated change not applied, one chain of several): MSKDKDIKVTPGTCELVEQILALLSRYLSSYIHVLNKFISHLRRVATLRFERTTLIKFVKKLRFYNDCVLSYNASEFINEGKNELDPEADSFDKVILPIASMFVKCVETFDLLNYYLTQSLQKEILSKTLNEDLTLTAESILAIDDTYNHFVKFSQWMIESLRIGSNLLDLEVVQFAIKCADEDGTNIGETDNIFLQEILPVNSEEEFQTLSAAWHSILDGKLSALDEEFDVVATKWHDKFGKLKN

[2] = target: She2p (T191A D192A);She3p (Saccharomyces cerevisiae;Saccharomyces …, UniProt P36068;P38272 1-246;1-425, T191A;D192A|); assay: as above; conditions: protein: recombinant;recombinant; tags: GST tag (PreScission-cleaved);C-terminal His6; chain copies: 4;2; label: 32P; stem-loop
Sequence of She2p (T191A D192A);She3p (P36068 whole entry T191A/D192A, one chain of several): as the sequence (P36068 whole entry, stated change not applied, one chain of several) above, with T191A, D192A counted along it

She2p;She3p (R341E) = She2p;She3p (R341E) (Saccharomyces cerevisiae;Saccharomyces …, UniProt P36068;P38272 1-246;1-425, |R341E); assay: as above; conditions: protein: recombinant;recombinant; tags: GST tag (PreScission-cleaved);C-terminal His6; chain copies: 4;2; label: 32P; stem-loop
Sequence of She2p;She3p (R341E) (P36068 whole entry, stated change not applied, one chain of several): as the sequence (P36068 whole entry, stated change not applied, one chain of several) above

[3] = target: She2p (E183A D184A G185A);She3p (Saccharomyces cerevisiae;Saccharomyces …, UniProt P36068;P38272 1-246;1-425, E183A;D184A;G185A|); assay: as above; conditions: protein: recombinant;recombinant; tags: GST tag (PreScission-cleaved);C-terminal His6; chain copies: 4;2; label: 32P; stem-loop
Sequence of She2p (E183A D184A G185A);She3p (P36068 whole entry E183A/D184A/G185A, one chain of several): as the sequence (P36068 whole entry, stated change not applied, one chain of several) above, with E183A, D184A, G185A counted along it

She3p (L364A V367A) = target: T1, She3p (L364A V367A) (Saccharomyces cerevisiae, UniProt P38272 1-425, L364A;V367A); assay: EMSA; +++; EMSA: 20 mM HEPES pH 7.8, 200 mM NaCl, 2 mM MgCl2, 2 mM DTT, 4% glycerol, 30 or 100 ug/ml yeast tRNA, 5 nM RNA, 20 C; filter binding: 20 mM HEPES pH 7.4-7.5 (7.9 with She3p), 150 mM NaCl, 2 mM MgCl2, 2 mM DTT, 30 ug/ml yeast tRNA, 0.5 nM RNA; pull-down: HNMD buffer, 4 C; conditions: protein: recombinant; tags: C-terminal His6; label: 32P; stem-loop
T1 sequence: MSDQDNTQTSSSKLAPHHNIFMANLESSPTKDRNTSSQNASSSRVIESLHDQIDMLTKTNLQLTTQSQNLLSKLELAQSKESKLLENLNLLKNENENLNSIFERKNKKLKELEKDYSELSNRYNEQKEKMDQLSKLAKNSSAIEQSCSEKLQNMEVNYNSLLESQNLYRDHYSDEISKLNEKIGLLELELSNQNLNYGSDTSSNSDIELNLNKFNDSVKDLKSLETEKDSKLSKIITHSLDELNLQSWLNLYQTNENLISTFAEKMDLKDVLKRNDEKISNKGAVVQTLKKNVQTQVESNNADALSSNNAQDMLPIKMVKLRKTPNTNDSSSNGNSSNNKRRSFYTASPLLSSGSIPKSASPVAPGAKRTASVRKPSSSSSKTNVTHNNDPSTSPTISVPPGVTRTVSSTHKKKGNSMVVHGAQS

Measured: binding result

B1: ASH1 E3-118 (structured_RNA)
RNA: GAGACAGUAGAGAAUUGAUACAUGGAUAACUGAAUCUCUUUCAACUAAUAAGAGACAUUAUCACGAAACAAUUGUACAUUUCUCUCCUUGUCUGUGCUAAAUAAACUACAAAUAAAAA
binds: Puf6p | [1] | [2] | She2p;She3p (R341E) | [3] | She3p (L364A V367A)
